Results on three substances are retold here after US20090220470A1.

By Kd is commonly meant the free concentration of one partner at which half of the binding sites on the other are occupied at equilibrium, for simple one-to-one binding. As a reminder, the half-life is the time in which the quantity being followed falls by half. Read a high half-life as slow decline. Usually koff stands for a measure of how fast the partners let go of each other. Read a high koff as a short-lived complex.

Assay [1] addresses Mono-ubiquitin (Sigma Aldrich) (UniProt P0CG48). As to the kind of experiment: SPR (Biacore), GST fusion captured on anti-GST antibody chip (150-220 RU), mono-ubiquitin injected in a 2-fold dilution series, steady-state fit. For orientation: SPR reads the build-up and loss of mass on a sensor chip optically.
Assay [2] has as its target poly-ubiquitylated proteins (of cell lysates). As to the kind of experiment: cell-based or functional assay.
In assay [3] the target is K48 tetra-ubiquitin (Boston Biochem) (UniProt P0CG48). The experiment in a line: SPR (BiaCore 3000), GST-TUBE captured on anti-GST chip at low density, tetra-ubiquitin injected, steady-state fit.
The target in assay [4] is K63 tetra-ubiquitin (Boston Biochem) (UniProt P0CG48). The description is as above.
The target of assay [5] is K48 tetra-ubiquitin (Boston Biochem) (UniProt P0CG48). As to the kind of experiment: SPR (BiaCore 3000), dissociation followed over two hours (data not shown).
Assay [6] concerns the target K63 tetra-ubiquitin (Boston Biochem) (UniProt P0CG48). The description is as above.
Assay [7] concerns the target K48 tetra-ubiquitin (Boston Biochem) (UniProt P0CG48). The experiment in a line: ratio of the literature Kd of the single UBA (Raasi et al.) to the SPR Kd of the TUBE.
Assay [8] has as its target K63 tetra-ubiquitin (Boston Biochem) (UniProt P0CG48). The description is as above.
The target of assay [9] is K48 tetra-ubiquitin (Boston Biochem) (UniProt P0CG48). The experiment in a line: SPR (BiaCore 3000), dissociation phase fitted with a double exponential, second (slow) phase.
The target of assay [10] is K63 tetra-ubiquitin (Boston Biochem) (UniProt P0CG48). The assay is described as above.
Assay [11] addresses Mono-ubiquitin (Sigma Aldrich) (UniProt P0CG48). The experiment in a line: SPR (BiaCore 3000), captured via GST on anti-GST chip, mono-ubiquitin injected, steady state.
Assay [12] concerns the target K48 tetra-ubiquitin (Boston Biochem) (UniProt P0CG48). The experiment in a line: SPR (BiaCore 3000), dissociation phase fitted with a double exponential, first (rapid) phase.
For assay [13], the target named is K63 tetra-ubiquitin (Boston Biochem) (UniProt P0CG48). The assay is described as above.
In assay [14] the target is Mono-ubiquitin (Sigma Aldrich) (UniProt P0CG48). As to the kind of experiment: SPR (BIACORE 3000), GST-p62 UBA polypeptide captured on anti-GST antibody chip, ubiquitin injected.
Assay [15] shares this target. As to the kind of experiment: SPR (BIACORE 3000), GST-p62 UBA polypeptide captured on anti-GST chip, ubiquitin injected.

Sequence of hHR23A TUBE (TUBE comprising 4 hHR23a UBA-1 domains, GST fusion with His6 and SV5 tags) (designed binder) (chain, part): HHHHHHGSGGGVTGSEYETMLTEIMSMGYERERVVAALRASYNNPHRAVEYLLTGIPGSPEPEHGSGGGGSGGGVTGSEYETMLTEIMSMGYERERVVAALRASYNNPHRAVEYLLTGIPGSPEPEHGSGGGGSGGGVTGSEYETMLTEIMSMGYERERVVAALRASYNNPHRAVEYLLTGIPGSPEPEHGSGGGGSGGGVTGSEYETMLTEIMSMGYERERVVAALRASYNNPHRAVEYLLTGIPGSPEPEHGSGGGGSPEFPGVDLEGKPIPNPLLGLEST
Sequence of Ubiquilin1 TUBE (TUBE comprising 4 ubiquilin-1 UBA domains, GST fusion with His6 and SV5 tags) (designed binder) (chain, part): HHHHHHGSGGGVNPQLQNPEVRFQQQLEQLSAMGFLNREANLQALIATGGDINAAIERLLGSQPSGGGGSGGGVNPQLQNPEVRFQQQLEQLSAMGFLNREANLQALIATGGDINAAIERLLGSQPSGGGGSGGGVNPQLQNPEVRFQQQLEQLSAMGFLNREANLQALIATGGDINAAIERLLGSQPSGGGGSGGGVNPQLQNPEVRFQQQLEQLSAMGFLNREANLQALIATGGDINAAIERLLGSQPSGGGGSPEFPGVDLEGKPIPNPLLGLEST

For the substance “Ubiquilin1 TUBE (TUBE comprising 4 ubiquilin-1 UBA domains, GST fusion with His6 and SV5 tags) (designed binder)”, the Kd in [1] came out at 30200 nM; in assay [3], 14.3 nM; in assay [4] it was 0.6 nM. The lowest TUBE concentration at which protection from de-ubiquitylation was detectable in assay [2] was found to be 0.17 µM. In addition, the half-life in assay [5] and in [6] was greater than 5 h throughout. Also, the figures for the Kd(UBA)/Kd(TUBE) in assay [7] and in assay [8] were 84 fold and 833 fold, respectively. The dissociation rate constant (koff) in assay [9] came out at 0.0004 s⁻¹; in [10], 0.0004 s⁻¹; in assay [12] it was 0.03 s⁻¹; in assay [13], 0.03 s⁻¹. The binding stoichiometry (molar ratio ubiquitin:TUBE) (ubiquitin per TUBE) in assay [11] worked out at 4. Also, the t1/2 (first dissociation phase) in assay [12] and in [13] was 25 s throughout.

Turning to “hHR23A TUBE (TUBE comprising 4 hHR23a UBA-1 domains, GST fusion with His6 and SV5 tags) (designed binder)”, the figures for the dissociation constant Kd in assay [1], in [3] and in assay [4] were 65800 nM, 9.35 nM and 4.88 nM, respectively. In assay [2], this substance displayed a lowest TUBE concentration at which protection from de-ubiquitylation was detectable of 0.17 µM. Also, the half-life in [5] and in [6] was greater than 5 h each time. Further, the Kd(UBA)/Kd(TUBE) in [7] was 663 fold; in assay [8] it was 943 fold. The koff came out at 0.0004 s⁻¹ in assay [9], 0.0004 s⁻¹ in [10], 0.03 s⁻¹ in assay [12] and 0.03 s⁻¹ in assay [13]. The binding stoichiometry (molar ratio ubiquitin:TUBE) (ubiquitin per TUBE) in assay [11] is 4. Besides, the t1/2 (first dissociation phase) in [12] and in assay [13] was 25 s each time.

With “p62×4 (four domains of the p62-UBA fused to GST; TUBE comprising 4 p62 UBA domains) (designed binder)”, the N (stoichiometry of Ubiquitin-UBA interaction) in [14] was 5.8. The substance further showed a fold more binding (against one UBA copy) in assay [15] of 6 fold.
